Experimental data reported in article PMC5575521, “Liver microsomal lipid enhances the activity and redox coupling of colocalized cytochrome P450 reductase‐cytochrome P450 3A4 in nanodiscs” (The Febs Journal, 2017).

Legend:
Details in all cases: both partners purified
[1] = target: T1, cytochrome P450 3A4 (CYP3A4), human, C-terminally His-tagged, expressed from pB84 (human, UniProt P08684 1-503); test: absorbance spectroscopy of the co-purified nanodiscs (fit of a convolution spectrum); CPR-CYP3A4-nanodiscs of bovine liver microsomal lipid after Ni-affinity and gel filtration; spectra of singly loaded nanodiscs as basis spectra
T1 construct: human cytochrome P450 3A4 with its own N-terminal membrane anchor domain; expressed with an OmpA leader that is cleaved off during membrane targeting; source: E. coli K12 JM109, solubilised with CHAPS, purified (Ni-NTA agarose); not shown: His-tag, C-terminal, kept
T1 sequence (P08684 whole entry, the tested form may be a part): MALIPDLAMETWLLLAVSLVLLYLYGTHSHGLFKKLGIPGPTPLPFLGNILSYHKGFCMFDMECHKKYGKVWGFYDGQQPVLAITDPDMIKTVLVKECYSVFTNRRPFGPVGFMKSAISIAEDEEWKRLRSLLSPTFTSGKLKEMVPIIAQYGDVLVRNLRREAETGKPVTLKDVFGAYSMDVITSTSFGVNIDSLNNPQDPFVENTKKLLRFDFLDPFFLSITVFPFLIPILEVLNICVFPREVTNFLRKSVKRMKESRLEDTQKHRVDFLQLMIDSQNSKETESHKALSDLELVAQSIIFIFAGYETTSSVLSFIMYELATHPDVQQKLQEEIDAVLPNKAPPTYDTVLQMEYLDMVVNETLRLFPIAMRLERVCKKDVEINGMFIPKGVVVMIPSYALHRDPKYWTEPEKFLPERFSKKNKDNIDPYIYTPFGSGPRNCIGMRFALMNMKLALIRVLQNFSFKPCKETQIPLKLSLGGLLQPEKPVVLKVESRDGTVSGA

[2] = target: T1, cytochrome P450 3A4 (CYP3A4), human, …; test: absorbance spectroscopy of the co-purified nanodiscs (fit of a convolution spectrum); CPR-CYP3A4-nanodiscs of mixed lipid (ER mimic) after Ni-affinity and gel filtration; spectra of singly loaded nanodiscs as basis spectra
[3] = target: T1, cytochrome P450 3A4 (CYP3A4), human, …; test: absorbance spectroscopy of the co-purified nanodiscs (fit of a convolution spectrum); CPR-CYP3A4-nanodiscs of POPC after Ni-affinity and gel filtration; spectra of singly loaded nanodiscs as basis spectra

B1: NADPH-dependent cytochrome P450 oxidoreductase (CPR), full-length human, expressed from pPORh1 (enzyme)
chain: GIPGSMGDSHVDTSSTVSEAVAEEVSLFSMTDMILFSLIVGLLTYWFLFRKKKEEVPEFTKIQTLTSSVRESSFVEKMKKTGRNIIVFYGSQTGTAEEFANRLSKDAHRYGMRGMSADPEEYDLADLSSLPEIDNALVVFCMATYGEGDPTDNAQDFYDWLQETDVDLSGVKFAVFGLGNKTYEHFNAMGKYVDKRLEQLGAQRIFELGLGDDDGNLEEDFITWREQFWPAVCEHFGVEATGEESSIRQYELVVHTDIDAAKVYMGEMGRLKSYENQKPPFDAKNPFLAAVTTNRKLNQGTERHLMHLELDISDSKIRYESGDHVAVYPANDSALVNQLGKILGADLDVVMSLNNLDEESNKKHPFPCPTSYRTALTYYLDITNPPRTNVLYELAQYASEPSEQELLRKMASSSGEGKELYLSWVVEARRHILAILQDCPSLRPPIDHLCELLPRLQARYYSIASSSKVHPNSVHICAVVVEYETKAGRINKGVATNWLRAKEPAGENGGRALVPMFVRKSQFRLPFKATTPVIMVGPGTGVAPFIGFIQERAWLRQQGKEVGETLLYYGCRRSDEDYLYREELAQFHRDGALTQLNVAFSREQSHKVYVQHLLKQDREHLWKLIEGGAHIYVCGDARNMARDVQNTFYDIVAELGAMEHAQAVDYIKKLMTKGRYSLDVWS
notes: printed in three-letter code as Gly-Iso-Pro-Gly-Ser; human NADPH-dependent cytochrome P450 reductase (CPR), full length with its N-terminal membrane anchor domain; Expressed with an N-terminal OmpA leader for periplasmic membrane targeting; also called cytochrome P450 reductase; full-length CPR; source: E. coli C41(DE3), solubilised from membranes with Triton X-100, purified (2',5'-ADP Sepharose …)
For B1, the “stoichiometry N” value [1] was 1 CPR : CYP (molar ratio), the “stoichiometry N” value [2] was 1.1 CPR : CYP (molar ratio) and the “stoichiometry N” value [3] was 0.8 CPR : CYP (molar ratio).
